Source: publication PMC8231982

Legend:
[1] = biological target: T1, HIV-1 gp120 monomer, strain HxBc2 (HIV-1, strain HxBc2), P04578; assay: SPR; details: remark: other sources report otherwise
[2] = biological target: T1, HIV-1 gp120 monomer, strain HxBc2 …; assay: SPR; details: remark: other sources report otherwise; remark: listed apart in the source

B1: wild-type cyanovirin-N (WT CV–N), P81180 1-101 (natural protein)
chain: LGKFSQTCYNSAIQGSVLTSTCERTNGGYNTSSIDLNSVIENVDGSLKWQPSNFIETCRNTQLAGSSELAAECKTRAQQFVSTKINLDDHIANIDGTLKYE
Kd [1]: 260 nM
Kd [2]: 250 nM
